From patent publication US10450368

Columns and labels:
Centromere B [1] = biological target: Centromere B (UniProt P07199); experiment: AtheNA, Ab 25 ug/ml
Histones [2] = experiment: AtheNA, Ab 25 ug/ml
Jo-1 [3] = biological target: Jo-1 (UniProt P12081); experiment: AtheNA, Ab 25 ug/ml
RNP (ribonucleoprotein) [4] = experiment: AtheNA, Ab 25 ug/ml
SSA [5] = experiment: AtheNA, Ab 25 ug/ml
SSB [6] = biological target: SSB (UniProt P05455); experiment: AtheNA, Ab 25 ug/ml
Scl-70 [7] = biological target: Scl-70 (UniProt P11387); experiment: AtheNA, Ab 25 ug/ml
Sm (Smith antigen) [8] = experiment: AtheNA, Ab 25 ug/ml
Jo-1 [9] = biological target: Jo-1 (UniProt P12081); experiment: AtheNA, Ab 50 ug/ml
SSB [10] = biological target: SSB (UniProt P05455); experiment: AtheNA, Ab 50 ug/ml
Centromere B [11] = biological target: Centromere B (UniProt P07199); experiment: AtheNA, Ab 25 ug/ml; remark: listed apart in the source
Histones [12] = experiment: AtheNA, Ab 25 ug/ml; remark: listed apart in the source
Jo-1 [13] = biological target: Jo-1 (UniProt P12081); experiment: AtheNA, Ab 25 ug/ml; remark: listed apart in the source
RNP (ribonucleoprotein) [14] = experiment: AtheNA, Ab 25 ug/ml; remark: listed apart in the source
SSA [15] = experiment: AtheNA, Ab 25 ug/ml; remark: listed apart in the source
SSB [16] = biological target: SSB (UniProt P05455); experiment: AtheNA, Ab 25 ug/ml; remark: listed apart in the source
Scl-70 [17] = biological target: Scl-70 (UniProt P11387); experiment: AtheNA, Ab 25 ug/ml; remark: listed apart in the source
Sm (Smith antigen) [18] = experiment: AtheNA, Ab 25 ug/ml; remark: listed apart in the source
Jo-1 [19] = biological target: Jo-1 (UniProt P12081); experiment: AtheNA, Ab 50 ug/ml; remark: listed apart in the source
SSB [20] = biological target: SSB (UniProt P05455); experiment: AtheNA, Ab 50 ug/ml; remark: listed apart in the source
Centromere B [21] = biological target: Centromere B (UniProt P07199); experiment: AtheNA, Ab 12.5 ug/ml
Histones [22] = experiment: AtheNA, Ab 12.5 ug/ml
Jo-1 [23] = biological target: Jo-1 (UniProt P12081); experiment: AtheNA, Ab 12.5 ug/ml
RNP (ribonucleoprotein) [24] = experiment: AtheNA, Ab 12.5 ug/ml
SSA [25] = experiment: AtheNA, Ab 12.5 ug/ml
SSB [26] = biological target: SSB (UniProt P05455); experiment: AtheNA, Ab 12.5 ug/ml
Scl-70 [27] = biological target: Scl-70 (UniProt P11387); experiment: AtheNA, Ab 12.5 ug/ml
Sm (Smith antigen) [28] = experiment: AtheNA, Ab 12.5 ug/ml
Centromere B [29] = biological target: Centromere B (UniProt P07199); experiment: AtheNA, Ab 6.25 ug/ml
Histones [30] = experiment: AtheNA, Ab 6.25 ug/ml
Jo-1 [31] = biological target: Jo-1 (UniProt P12081); experiment: AtheNA, Ab 6.25 ug/ml
RNP (ribonucleoprotein) [32] = experiment: AtheNA, Ab 6.25 ug/ml
SSA [33] = experiment: AtheNA, Ab 6.25 ug/ml
SSB [34] = biological target: SSB (UniProt P05455); experiment: AtheNA, Ab 6.25 ug/ml
Scl-70 [35] = biological target: Scl-70 (UniProt P11387); experiment: AtheNA, Ab 6.25 ug/ml
Sm (Smith antigen) [36] = experiment: AtheNA, Ab 6.25 ug/ml
CH505.M10D8gp120 = experiment: direct-binding ELISA
CH505.M11D8gp120/293F = experiment: direct-binding ELISA
CH505.M19D8gp120 = experiment: direct-binding ELISA
CH505.M21D8gp120/293F = experiment: direct-binding ELISA
CH505.M5D8gp120293F = experiment: direct-binding ELISA
CH505.M7D8gp120/293F = experiment: direct-binding ELISA
CH505.M9D8gp120/293F = experiment: direct-binding ELISA
[37] = biological target: CH505.TF mutant gp120 M20 (HIV-1); experiment: direct-binding ELISA
[38] = biological target: CH505.TF mutant gp120 M6 (HIV-1); experiment: direct-binding ELISA
[39] = biological target: CH505.TF mutant gp120 M8 (HIV-1); experiment: direct-binding ELISA
[40] = biological target: CH505_w137V201B12.D11gp120 (HIV-1); experiment: direct-binding ELISA
[41] = biological target: CH505_w137V209C12.D11gp120 (HIV-1); experiment: direct-binding ELISA
[42] = biological target: CH505w136.B10D8gp120 (HIV-1); experiment: direct-binding ELISA
[43] = biological target: CH505w136.B12D8gp120 (HIV-1); experiment: direct-binding ELISA
[44] = biological target: CH505w136.B18D8gp120 (HIV-1); experiment: direct-binding ELISA
[45] = biological target: CH505w136.B20D8gp120 (HIV-1); experiment: direct-binding ELISA
[46] = biological target: CH505w136.B27D8gp120 (HIV-1); experiment: direct-binding ELISA
[47] = biological target: CH505w136.B29D8gp120 (HIV-1); experiment: direct-binding ELISA
[48] = biological target: CH505w136.B2D8gp120/293F (HIV-1); experiment: direct-binding ELISA
[49] = biological target: CH505w136.B36D8gp120 (HIV-1); experiment: direct-binding ELISA
[50] = biological target: CH505w136.B3D8gp120/293F (HIV-1); experiment: direct-binding ELISA
[51] = biological target: CH505w136.B4D8gp120 (HIV-1); experiment: direct-binding ELISA
[52] = biological target: CH505w136.B5D8gp120 (HIV-1); experiment: direct-binding ELISA
[53] = biological target: CH505w136.B8D8gp120 (HIV-1); experiment: direct-binding ELISA
[54] = biological target: CH505w160.A1D8gp120 (HIV-1); experiment: direct-binding ELISA
[55] = biological target: CH505w160.C11D8gp120 (HIV-1); experiment: direct-binding ELISA
[56] = biological target: CH505w160.C12D8gp120 (HIV-1); experiment: direct-binding ELISA
[57] = biological target: CH505w160.C14D8gp120 (HIV-1); experiment: direct-binding ELISA
[58] = biological target: CH505w160.C2D8gp120 (HIV-1); experiment: direct-binding ELISA
[59] = biological target: CH505w160.C4D8gp120 (HIV-1); experiment: direct-binding ELISA
[60] = biological target: CH505w160.D1D8gp120 (HIV-1); experiment: direct-binding ELISA
[61] = biological target: CH505w160.D5D8gp120/293F (HIV-1); experiment: direct-binding ELISA
[62] = biological target: CH505w160.T2D8gp120 (HIV-1); experiment: direct-binding ELISA
[63] = biological target: CH505w160.T4D8gp120/293F (HIV-1); experiment: direct-binding ELISA

Chain of Jo-1 (P12081 whole entry): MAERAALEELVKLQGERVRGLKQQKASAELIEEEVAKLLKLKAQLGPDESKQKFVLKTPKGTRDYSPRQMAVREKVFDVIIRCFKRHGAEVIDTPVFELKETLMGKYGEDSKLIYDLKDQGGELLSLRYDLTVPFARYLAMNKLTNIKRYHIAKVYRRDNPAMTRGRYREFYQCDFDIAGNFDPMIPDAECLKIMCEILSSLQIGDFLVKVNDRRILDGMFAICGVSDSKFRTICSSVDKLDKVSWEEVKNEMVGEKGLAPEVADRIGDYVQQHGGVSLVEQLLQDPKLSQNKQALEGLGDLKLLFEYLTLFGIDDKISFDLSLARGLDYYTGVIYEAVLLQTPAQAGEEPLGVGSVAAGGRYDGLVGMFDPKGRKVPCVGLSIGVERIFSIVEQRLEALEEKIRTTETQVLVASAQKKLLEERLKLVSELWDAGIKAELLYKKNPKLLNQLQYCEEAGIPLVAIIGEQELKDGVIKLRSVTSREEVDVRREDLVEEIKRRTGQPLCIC
Chain of Scl-70 (P11387 whole entry): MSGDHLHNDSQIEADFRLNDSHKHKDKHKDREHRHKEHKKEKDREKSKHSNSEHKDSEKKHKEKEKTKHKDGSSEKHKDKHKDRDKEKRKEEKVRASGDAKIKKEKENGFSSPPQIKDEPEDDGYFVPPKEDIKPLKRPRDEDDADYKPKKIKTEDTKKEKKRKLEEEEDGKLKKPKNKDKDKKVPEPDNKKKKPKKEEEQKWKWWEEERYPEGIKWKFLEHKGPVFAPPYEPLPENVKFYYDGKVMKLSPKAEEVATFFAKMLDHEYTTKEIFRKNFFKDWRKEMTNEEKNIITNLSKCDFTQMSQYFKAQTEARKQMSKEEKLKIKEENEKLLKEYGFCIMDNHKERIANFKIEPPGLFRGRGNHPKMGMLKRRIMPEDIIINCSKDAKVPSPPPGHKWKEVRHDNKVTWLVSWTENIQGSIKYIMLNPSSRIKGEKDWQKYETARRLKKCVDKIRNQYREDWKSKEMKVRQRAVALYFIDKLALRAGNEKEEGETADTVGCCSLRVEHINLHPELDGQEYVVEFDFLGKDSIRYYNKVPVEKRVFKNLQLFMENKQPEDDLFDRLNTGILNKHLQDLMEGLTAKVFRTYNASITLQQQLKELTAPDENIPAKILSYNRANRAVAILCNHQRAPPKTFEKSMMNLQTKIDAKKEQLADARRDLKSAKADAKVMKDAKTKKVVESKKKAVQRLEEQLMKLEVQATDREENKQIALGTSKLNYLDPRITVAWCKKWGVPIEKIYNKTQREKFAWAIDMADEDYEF
Chain of SSB (P05455 whole entry): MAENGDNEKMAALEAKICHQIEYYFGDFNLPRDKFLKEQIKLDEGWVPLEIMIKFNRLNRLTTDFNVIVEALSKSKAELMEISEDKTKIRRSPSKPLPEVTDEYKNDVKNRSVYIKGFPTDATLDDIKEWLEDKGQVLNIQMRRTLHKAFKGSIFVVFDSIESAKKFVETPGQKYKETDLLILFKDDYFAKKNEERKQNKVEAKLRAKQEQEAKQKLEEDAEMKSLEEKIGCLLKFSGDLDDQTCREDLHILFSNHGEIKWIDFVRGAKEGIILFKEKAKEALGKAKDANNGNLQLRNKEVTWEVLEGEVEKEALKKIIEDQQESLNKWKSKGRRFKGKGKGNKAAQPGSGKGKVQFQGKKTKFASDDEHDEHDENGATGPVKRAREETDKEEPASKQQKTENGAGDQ
Chain of Centromere B (P07199 whole entry): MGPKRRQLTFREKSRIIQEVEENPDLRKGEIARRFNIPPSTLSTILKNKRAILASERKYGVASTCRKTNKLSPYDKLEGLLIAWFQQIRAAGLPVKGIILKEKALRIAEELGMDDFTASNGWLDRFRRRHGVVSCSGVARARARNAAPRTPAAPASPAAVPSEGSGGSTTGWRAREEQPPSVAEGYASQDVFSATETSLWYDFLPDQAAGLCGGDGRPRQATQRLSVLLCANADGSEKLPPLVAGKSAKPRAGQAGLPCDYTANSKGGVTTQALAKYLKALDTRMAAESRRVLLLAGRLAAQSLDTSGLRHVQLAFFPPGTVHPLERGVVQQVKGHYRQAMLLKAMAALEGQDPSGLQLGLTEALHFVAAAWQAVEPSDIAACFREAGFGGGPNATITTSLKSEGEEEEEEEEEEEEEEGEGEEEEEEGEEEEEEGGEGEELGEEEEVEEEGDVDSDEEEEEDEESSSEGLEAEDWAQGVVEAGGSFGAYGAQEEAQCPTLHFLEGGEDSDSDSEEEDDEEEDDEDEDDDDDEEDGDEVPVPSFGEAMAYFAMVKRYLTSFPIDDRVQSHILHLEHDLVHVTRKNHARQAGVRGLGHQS

## 4E10 (antibody)
Centromere B [1]
  AtheNA signal (relative luminescence units): 3
Histones [2]
  AtheNA signal (relative luminescence units): 10
Jo-1 [3]
  AtheNA signal (relative luminescence units): 160
RNP (ribonucleoprotein) [4]
  AtheNA signal (relative luminescence units): 3
SSA [5]
  AtheNA signal (relative luminescence units): 33
SSB [6]
  AtheNA signal (relative luminescence units): 227
Scl-70 [7]
  AtheNA signal (relative luminescence units): 1
Sm (Smith antigen) [8]
  AtheNA signal (relative luminescence units): 2
Jo-1 [9]
  AtheNA signal (relative luminescence units): 190
SSB [10]
  AtheNA signal (relative luminescence units): 263
Centromere B [11]
  AtheNA signal (relative luminescence units): 9
Histones [12]
  AtheNA signal (relative luminescence units): 24
Jo-1 [13]
  AtheNA signal (relative luminescence units): 206
RNP (ribonucleoprotein) [14]
  AtheNA signal (relative luminescence units): 20
SSA [15]
  AtheNA signal (relative luminescence units): 81
SSB [16]
  AtheNA signal (relative luminescence units): 189
Scl-70 [17]
  AtheNA signal (relative luminescence units): 4
Sm (Smith antigen) [18]
  AtheNA signal (relative luminescence units): 46
Jo-1 [19]
  AtheNA signal (relative luminescence units): 227
SSB [20]
  AtheNA signal (relative luminescence units): 207
Centromere B [21]
  AtheNA signal (relative luminescence units): 1
Histones [22]
  AtheNA signal (relative luminescence units): 7
Jo-1 [23]
  AtheNA signal (relative luminescence units): 131
RNP (ribonucleoprotein) [24]
  AtheNA signal (relative luminescence units): 3
SSA [25]
  AtheNA signal (relative luminescence units): 21
SSB [26]
  AtheNA signal (relative luminescence units): 199
Scl-70 [27]
  AtheNA signal (relative luminescence units): 0
Sm (Smith antigen) [28]
  AtheNA signal (relative luminescence units): 3
Centromere B [29]
  AtheNA signal (relative luminescence units): 2
Histones [30]
  AtheNA signal (relative luminescence units): 6
Jo-1 [31]
  AtheNA signal (relative luminescence units): 113
RNP (ribonucleoprotein) [32]
  AtheNA signal (relative luminescence units): 3
SSA [33]
  AtheNA signal (relative luminescence units): 17
SSB [34]
  AtheNA signal (relative luminescence units): 178
Scl-70 [35]
  AtheNA signal (relative luminescence units): 1
Sm (Smith antigen) [36]
  AtheNA signal (relative luminescence units): 3

## CH105 (antibody)
CH505.M10D8gp120
  LogAUC: 11.3
CH505.M11D8gp120/293F
  LogAUC: 11.7
CH505.M19D8gp120
  LogAUC: 10.9
CH505.M21D8gp120/293F
  LogAUC: 11.2
CH505.M5D8gp120293F
  LogAUC: 8.63
CH505.M7D8gp120/293F
  LogAUC: 10.2
CH505.M9D8gp120/293F
  LogAUC: 10.6
[37]
  LogAUC: 10.6
[38]
  LogAUC: 11.1
[39]
  LogAUC: 9.33
[40]
  LogAUC: 11
[41]
  LogAUC: 12.7
[42]
  LogAUC: 8.52
[43]
  LogAUC: 9.67
[44]
  LogAUC: 13.7
[45]
  LogAUC: 10.7
[46]
  LogAUC: 10.4
[47]
  LogAUC: 10.2
[48]
  LogAUC: 12.4
[49]
  LogAUC: 12.8
[50]
  LogAUC: 12
[51]
  LogAUC: 10.7
[52]
  LogAUC: 10.6
[53]
  LogAUC: 9.86
[54]
  LogAUC: 6.66
[55]
  LogAUC: 7.7
[56]
  LogAUC: 11.1
[57]
  LogAUC: 6.58
[58]
  LogAUC: 8.61
[59]
  LogAUC: 6.55
[60]
  LogAUC: 6.03
[61]
  LogAUC: 4.58
[62]
  LogAUC: 4.94
[63]
  LogAUC: 12.2
